± gives the standard deviation of the averaged measurements.
Assay: total protein half-life in vivo (active degradation + dilution); higher = more stable protein
[1] = E. coli NCM3722 delta-clpP delta-lon delta-hslV, growth: N-lim chemostat, doubling time 6 h
[2] = E. coli NCM3722 delta-clpP, growth: N-lim chemostat, doubling time 6 h
[3] = E. coli NCM3722 delta-hslV, growth: N-lim chemostat, doubling time 6 h
[4] = E. coli NCM3722 delta-lon, growth: N-lim chemostat, doubling time 6 h
[5] = E. coli NCM3722 delta-smpB, growth: N-lim chemostat, doubling time 6 h
[6] = wild type E. coli NCM3722, growth: C-lim chemostat, doubling time 3 h
[7] = wild type E. coli NCM3722, growth: C-lim chemostat, doubling time 6 h
[8] = wild type E. coli NCM3722, growth: C-lim chemostat, doubling time 12 h
[9] = wild type E. coli NCM3722, growth: N-lim chemostat, doubling time 6 h
[10] = wild type E. coli NCM3722, growth: N-lim chemostat, doubling time 12 h
[11] = wild type E. coli NCM3722, growth: P-lim chemostat, doubling time 6 h
[12] = wild type E. coli NCM3722, growth: P-lim chemostat, doubling time 12 h

| Sequence | total protein half-life in vivo [1] | total protein half-life in vivo [2] | total protein half-life in vivo [3] | total protein half-life in vivo [4] | total protein half-life in vivo [5] | total protein half-life in vivo [6] | total protein half-life in vivo [7] | total protein half-life in vivo [8] | total protein half-life in vivo [9] | total protein half-life in vivo [10] | total protein half-life in vivo [11] | total protein half-life in vivo [12] |
| --- | --- | --- | --- | --- | --- | --- | --- | --- | --- | --- | --- | --- |
| MFKNAFANLQKVGKSLMLPVSVLPIAGILLGVGSANFSWLPAVVSHVMAEAGGSVFANMPLIFAIGVALGFTNNDGVSALAAVVAYGIMVKTMAVVAPLVLHLPAEEIASKHLADTGVLGGIISGAIAAYMFNRFYRIKLPEYLGFFAGKRFVPIISGLAAIFTGVVLSFIWPPIGSAIQTFSQWAAYQNPVVAFGIYGFIERCLVPFGLHHIWNVPFQMQIGEYTNAAGQVFHGDIPRYMAGDPTAGKLSGGFLFKMYGLPAAAIAIWHSAKPENRAKVGGIMISAALTSFLTGITEPIEFSFMFVAPILYIIHAILAGLAFPICILLGMRDGTSFSHGLIDFIVLSGNSSKLWLFPIVGIGYAIVYYTIFRVLIKALDLKTPGREDATEDAKATGTSEMAPALVAAFGGKENITNLDACITRLRVSVADVSKVDQAGLKKLGAAGVVVAGSGVQAIFGTKSDNLKTEMDEYIRNH | 6.96 ± 0.44 h | 6.21 ± 0.099 h | 6.68 ± 1.2 h | 6.75 ± 0.38 h | 6.19 ± 0.17 h | 3.54 ± 0.097 h | 6.88 ± 0.64 h | 13.4 ± 2.5 h | 5.92 ± 0.44 h | 11.8 ± 0.38 h | 5.86 ± 0.2 h | 11.7 ± 1.6 h |
| MRIGIPRERLTNETRVAATPKTVEQLLKLGFTVAVESGAGQLASFDDKAFVQAGAEIVEGNSVWQSEIILKVNAPLDDEIALLNPGTTLVSFIWPAQNPELMQKLAERNVTVMAMDSVPRISRAQSLDALSSMANIAGYRAIVEAAHEFGRFFTGQITAAGKVPPAKVMVIGAGVAGLAAIGAANSLGAIVRAFDTRPEVKEQVQSMGAEFLELDFKEEAGSGDGYAKVMSDAFIKAEMELFAAQAKEVDIIVTTALIPGKPAPKLITREMVDSMKAGSVIVDLAAQNGGNCEYTVPGEIFTTENGVKVIGYTDLPGRLPTQSSQLYGTNLVNLLKLLCKEKDGNITVDFDDVVIRGVTVIRAGEITWPAPPIQVSAQPQAAQKAAPEVKTEEKCTCSPWRKYALMALAIILFGWMASVAPKEFLGHFTVFALACVVGYYVVWNVSHALHTPLMSVTNAISGIIVVGALLQIGQGGWVSFLSFIAVLIASINIFGGFTVTQRMLKMFRKN | 6.21 ± 0.11 h | 6.81 ± 0.17 h | 6.66 ± 0.067 h | 6.58 ± 0.37 h | 6.01 ± 0.82 h | – | – | 14.5 ± 0.55 h | 6.23 ± 0.47 h | 12.6 ± 0.42 h | 6.73 ± 0.34 h | 11.6 ± 1.5 h |
| MRTVLNILNFVLGGFATTLGWLLATLVSIVLIFTLPLTRSCWEITKLSLVPYGNEAIHVDELNPAGKNVLLNTGGTVLNIFWLIFFGWWLCLMHIATGIAQCISIIGIPVGIANFKIAAIALWPVGRRVVSVETAQAAREANARRRFE [P0AB12] | 6.35 ± 0.66 h | 6.3 ± 0.72 h | 5.92 ± 0.069 h | 5.93 ± 0.27 h | 6.1 ± 0.31 h | 2.89 ± 0.29 h | 6.33 ± 0.089 h | 12.5 ± 1 h | 6.72 ± 1.3 h | 12.3 ± 3.2 h | 5.98 ± 0.26 h | 12 ± 0.12 h |
| MKTINTVVAAMALSTLSFGVFAAEPVTASQAQNMNKIGVVSADGASTLDALEAKLAEKAAAAGASGYSITSATNNNKLSGTAVIYK [P0AAX3] | – | – | – | – | 0.346 h | – | – | – | – | – | – | – |
| MAHPPRLNDDKPVIWTVSVTRLFELFRDISLEFDHLANITPIQLGFEKAVTYIRKKLANERCDAIIAAGSNGAYLKSRLSVPVILIKPSGYDVLQALAKAGKLTSSIGVVTYQETIPALVAFQKTFNLRLDQRSYITEEDARGQINELKANGTEAVVGAGLITDLAEEAGMTGIFIYSAATVRQAFSDALDMTRMSLRHNTHDATRNALRTRYVLGDMLGQSPQMEQVRQTILLYARSSAAVLIEGETGTGKELAAQAIHREYFARHDARQGKKSHPFVAVNCGAIAESLLEAELFGYEEGAFTGSRRGGRAGLFEIAHGGTLFLDEIGEMPLPLQTRLLRVLEEKEVTRVGGHQPVPVDVRVISATHCNLEEDMQQGRFRRDLFYRLSILRLQLPPLRERVADILPLAESFLKVSLAALSAPFSAALRQGLQASETVLLHYDWPGNIRELRNMMERLALFLSVEPTPDLTPQFMQLLLPELARESAKTPAPRLLTPQQALEKFNGDKTAAANYLGISRTTFWRRLKS | 4.26 ± 0.052 h | 2.4 ± 0.6 h | – | 2.71 h | 2.277 ± 0.021 h | 2.18 ± 0.55 h | 4.02 ± 0.54 h | 5.89 ± 0.42 h | 2.53 ± 0.25 h | 4.31 h | – | – |
| MENLARFLSTTLKQLRQQRGWSLSRLAEATGVSKAMLGQIERNESSPTVATLWKIATGLNVPFSTFISPPQSATPSVYDPQQQAMVITSLFPYDPQLCFEHFSIQMASGAISESTPHEKGVIEHVVVIDGQLDLCVDGEWQTLNCGEGVRFAADVTHIYRNGGEQTVHFHSLIHYPRS | 5.69 ± 0.83 h | 4.59 ± 0.28 h | 4.71 ± 0.22 h | 5.58 ± 0.23 h | 5.33 ± 1.1 h | 3.4 ± 0.15 h | 5.27 ± 0.69 h | 10.1 ± 0.49 h | 4.52 ± 0.93 h | 7.78 ± 0.9 h | 6.27 ± 1.1 h | 9.9 ± 0.44 h |
| MDLRDLKTFLHLAESRHFGRSARAMHVSPSTLSRQIQRLEEDLGQPLFVRDNRTVTLTEAGEELRVFAQQTLLQYQQLRHTIDQQGPSLSGELHIFCSVTAAYSHLPPILDRFRAEHPSVEIKLTTGDAADAMEKVVTGEADLAIAGKPETLPGAVAFSMLENLAVVLIAPALPCPVRNQVSVEKPDWSTVPFIMADQGPVRRRIELWFRRNKISNPMIYATVGGHEAMVSMVALGCGVALLPEVVLENSPEPVRNRVMILERSDEKTPFELGVCAQKKRLHEPLIEAFWKILPNHK | 6.95 ± 1.4 h | 6.14 ± 0.2 h | 5.87 ± 0.32 h | 6.22 ± 0.23 h | 6.35 ± 1.1 h | 2.78 ± 0.13 h | 5.47 ± 0.66 h | 11.4 ± 3.2 h | 5.9 ± 0.012 h | 10.9 ± 1.1 h | 5.48 ± 0.1 h | 11 ± 0.99 h |
| MMKRNILAVIVPALLVAGTANAAEIYNKDGNKVDLYGKAVGLHYFSKGNGENSYGGNGDMTYARLGFKGETQINSDLTGYGQWEYNFQGNNSEGADAQTGNKTRLAFAGLKYADVGSFDYGRNYGVVYDALGYTDMLPEFGGDTAYSDDFFVGRVGGVATYRNSNFFGLVDGLNFAVQYLGKNERDTARRSNGDGVGGSISYEYEGFGIVGAYGAADRTNLQEAQPLGNGKKAEQWATGLKYDANNIYLAANYGETRNATPITNKFTNTSGFANKTQDVLLVAQYQFDFGLRPSIAYTKSKAKDVEGIGDVDLVNYFEVGATYYFNKNMSTYVDYIINQIDSDNKLGVGSDDTVAVGIVYQF | 5.54 ± 0.65 h | 6.23 ± 0.86 h | 5.98 ± 0.073 h | 6.91 ± 0.67 h | 5.865 ± 0.041 h | 3.19 ± 0.046 h | 6.83 ± 0.66 h | 11.12 ± 0.049 h | 5.95 ± 0.26 h | 10.9 ± 0.82 h | 6.15 ± 0.23 h | – |
| MNVFSQTQRYKALFWLSLFHLLVITSSNYLVQLPVSILGFHTTWGAFSFPFIFLATDLTVRIFGAPLARRIIFAVMIPALLISYVISSLFYMGSWQGFGALAHFNLFVARIATASFMAYALGQILDVHVFNRLRQSRRWWLAPTASTLFGNVSDTLAFFFIAFWRSPDAFMAEHWMEIALVDYCFKVLISIVFFLPMYGVLLNMLLKRLADKSEINALQAS | – | – | – | – | – | 2.3 h | – | – | – | – | – | – |
| MKKAKILSGVLLLCFSSPLISQAATLDVRGGYRSGSHAYETRLKVSEGWQNGWWASMESNTWNTIHDNKKENAALNDVQVEVNYAIKLDDQWTVRPGMLTHFSSNGTRYGPYVKLSWDATKDLNFGIRYRYDWKAYRQQDLSGDMSRDNVHRWDGYVTYHINSDFTFAWQTTLYSKQNDYRYANHKKWATENAFVLQYHMTPDITPYIEYDYLDRQGVYNGRDNLSENSYRIGVSFKL | 4.55 h | – | – | – | – | 3.093 ± 0.0091 h | 6.86 ± 1.1 h | – | – | – | – | – |
| MDDLTAQALKDFTARYCDAWHEEHKSWPLSEELYGVPSPCIISTTEDAVYWQPQPFTGEQNVNAVERAFDIVIQPTIHTFYTTQFAGDMHAQFGDIKLTLLQTWSEDDFRRVQENLIGHLVTQKRLKLPPTLFIATLEEELEVISVCNLSGEVCKETLGTRKRTHLASNLAEFLNQLKPLL [P0A8U0] | 4.63 ± 0.19 h | – | 3.71 ± 0.25 h | 5.62 ± 1.2 h | 4.15 ± 0.19 h | > 4 h | 4.21 ± 1.8 h | 9.71 h | 3.72 h | 7.43 ± 1.4 h | 5.7 ± 0.28 h | 12.7 ± 2.7 h |
| MIIYLHGFDSNSPGNHEKVLQLQFIDPDVRLISYSTRHPKHDMQHLLKEVDKMLQLNVDERPLICGVGLGGYWAERIGFLCDIRQVIFNPNLFPYENMEGKIDRPEEYADIATKCVTNFREKNRDRCLVILSRNDEALNSQRTSEELHHYYEIVWDEEQTHKFKNISPHLQRIKAFKTLG [P0A8E1] | 4.77 ± 0.071 h | 4.58 ± 1.1 h | 4.44 ± 0.73 h | 4.75 ± 0.35 h | 4.37 ± 0.91 h | 2.64 ± 0.47 h | 4.65 ± 0.2 h | 7.7 ± 1.6 h | 3.92 ± 0.39 h | 6.49 ± 0.25 h | 5.07 ± 0.15 h | 10.6 ± 0.38 h |
| MSIQNEMPGYNEMNQYLNQQGTGLTPAEMHGLISGMICGGNDDSSWLPLLHDLTNEGMAFGHELAQALRKMHSATSDALQDDGFLFQLYLPDGDDVSVFDRADALAGWVNHFLLGLGVTQPKLDKVTGETGEAIDDLRNIAQLGYDEDEDQEELEMSLEEIIEYVRVAALLCHDTFTHPQPTAPEVQKPTLH [P0A8C4] | > 8 h | 4.56 ± 0.28 h | 3.63 ± 0.19 h | 3.96 ± 0.8 h | 3.76 ± 0.7 h | 2.648 ± 0.026 h | 5.18 ± 0.36 h | 8.97 ± 0.18 h | 3.86 ± 0.19 h | 5.64 ± 1 h | 5.02 ± 1.2 h | 9.3 h |
